Assay results: US20100150939A1

Assays:
[1] = target: recombinant human ADAM10 (amino residues 18-672, Cat. No 936-AD) (human) (UniProt O14672)
[2] = target: 6 activating periplasm out of 27 periplasm tested for ADAM10
[3] = target: 5 inhibiting periplasm out of 27 periplasm tested for ADAM10
[4] = target: 9 activating periplasm out of 31 periplasm tested for ADAM9
[5] = target: 7 inhibiting periplasm out of 31 periplasm tested for ADAM9

Percent activity compared to no periplasm (50x excess) [1] [percent] | Binder | also measured
76.4 | Nanobody 39-D8, E8 (VHH) VHH: EVQLVESGGGLVRARGSLRLSCAASGGTFSRYAMGWFRQAPGKEREFVAAISRSGGNTYFTESVKGRFTMSRDNAKNTVYLQMNSLKPEDTAVYYCAARSAAVYTTTVYLVDFEYNYWGQGTQVTVSS | –
194 | Nanobody 39-C8 (VHH) VHH: EMQLVESGGGLVQTGGSLRLSCAASGRTFTSYCVGWWRQAPGKERDVVAAITRGSNSTDYVDSVKGRFTISRDNAENTVYLQMNSLKPEDTAVYYCAADINCRNLYTGRPEYWGQGTQVTVSS | –
144 | Nanobody 39-F1 (VHH) VHH: EVQLVESGGGLVQAGGSLRLSCAASERIFSTYFMGWFRQAPGKEREFVAFISGNGGSTDYADSVKGRFAISRDNVKNTLYLQMSSLKPDDTAVYYCAVAGRQIKSTWGYWGQGTQVTVSS | –
84.6 | Nanobody 39-D1 (VHH) VHH: KVQLVESGGGLVQAGGSLRLSCAASGNIFINNAVGWYRQAPGKQREMVAAMLSGGSTNYADSVKGRFTISRDNAKNTVYLQMNSLKPEDTAVYYCNVQVNGTWARWGQGTQVTVSS | –

Continued, binder first:

Binder | Percent activity compared to no periplasm (50x excess) [1] [percent] | also measured
Nanobody 39-B1 (VHH) VHH: EVQLVESGGGLVQAGGSLRLSCARSGRISNINIMAWYRQAPGKTRDMVAAIIGDSTNYADSVKGRFTISRDNAKNTVYLHMNRLKPEDTGVYYCKISGVDWGQGTQVTVSS | 67.1 | –
Nanobody 33-D1 (VHH) VHH: EVQLVESGGGLVQAGDSLRLSCAATGRTFSSDAMGWFRQAPGKERAFVAGINYNSVYRYYTDSVEGRFTISRDNAKNTVYLQMNSLKPEDTAVYYCAADSDYYSLIGGRPVNYWGQGTQVTVSS | 85.6 | –
recombinant human ADAM10 (amino residues 18-672, Cat. No 936-AD) (protein) GGQYGNPLNKYIRHYEGLSYNVDSLHQKHQRAKRAVSHEDQFLRLDFHAHGRHFNLRMKRDTSLFSDEFKVETSNKVLDYDTSHIYTGHIYGEEGSFSHGSVIDGRFEGFIQTRGGTFYVEPAERYIKDRTLPFHSVIYHEDDINYPHKYGPQGGCADHSVFERMRKYQMTGVEEVTQIPQEEHAANGPELLRKKRTTSAEKNTCQLYIQTDHLFFKYYGTREAVIAQISSHVKAIDTIYQTTDFSGIRNISFMVKRIRINTTADEKDPTNPFRFPNIGVEKFLELNSEQNHDDYCLAYVFTDRDFDDGVLGLAWVGAPSGSSGGICEKSKLYSDGKKKSLNTGIITVQNYGSHVPPKVSHITFAHEVGHNFGSPHDSGTECTPGESKNLGQKENGNYIMYARATSGDKLNNNKFSLCSIRNISQVLEKKRNNCFVESGQPICGNGMVEQGEECDCGYSDQCKDECCFDANQPEGRKCKLKPGKQCSPSQGPCCTAQCAFKSKSEKCRDDSDCAREGICNGFTALCPASDPKPNFTDCNRHTQVCINGQCAGSICEKYGLEECTCASSDGKDDKELCHVCCMKKMDPSTCASTGSVQWSRHFSGRTITLQPGSPCNDFRGYCDVFMRCRLVDADGPLARLKKAIFSPELYENIAE | – | ADAM protease assay, fluorogenic peptide substrate ES003, periplasms containing Nanobodies [2]: 6 activated significantly (more than 200% initial activity); ADAM protease assay, fluorogenic peptide substrate ES003, periplasms containing Nanobodies [3]: 5 inhibited significantly (less than 40% residual activity)
Nanobody 32-E1, E6, 39-A2 (VHH) VHH: EVQLVESGGGLVQAGGSLRLSCAASERIFSTYFMGWFRQAPGKEREFVAFISGNGGSTDYADSVKGRFAISRDNVKNTLYLQMSSLKPDDTAVYYCAVAGRQIKSTWDYWGQGTQVTVSS | 163 | –
recombinant human ADAM9 (amino residues 1-697, R&D Systems, Cat. No. 939-AD) (protein) AARPGFQQTSHLSSYEIITPWRLTRERREAPRPYSKQVSYVIQAEGKEHIIHLERNKDLLPEDFVVYTYNKEGTLITDHPNIQNHCHYRGYVEGVHNSSIALSDCFGLRGLLHLENASYGIEPLQNSSHFEHIIYRMDDVYKEPLKCGVSNKDIEKETAKDEEEEPPSMTQLLRRRRAVLPQTRYVELFIVVDKERYDMMGRNQTAVREEMILLANYLDSMYIMLNIRIVLVGLEIWTNGNLINIVGGAGDVLGNFVQWREKFLITRRRHDSAQLVLKKGFGGTAGMAFVGTVCSRSHAGGINVFGQITVETFASIVAHELGHNLGMNHDDGRDCSCGAKSCIMNSGASGSRNFSSCSAEDFEKLTLNKGGNCLLNIPKPDEAYSAPSCGNKLVDAGEECDCGTPKECELDPCCEGSTCKLKSFAECAYGDCCKDCRFLPGGTLCRGKTSECDVPEYCNGSSQFCQPDVFIQNGYPCQNNKAYCYNGMCQYYDAQCQVIFGSKAKAAPKDCFIEVNSKGDRFGNCGFSGNEYKKCATGNALCGKLQCENVQEIPVFGIVPAIIQTPSRGTKCWGVDFQLGSDVPDPGMVNEGTKCGAGKICRNFQCVDASVLNYDCDVQKKCHGHGVCNSNKNCHCENGWAPPNCETKGYGGSVDSGPTYNEMNTALRD | – | ADAM protease assay, fluorogenic peptide substrate ES003, periplasms containing Nanobodies [4]: 9 were significantly activating; ADAM protease assay, fluorogenic peptide substrate ES003, periplasms containing Nanobodies [5]: 7 showed significant inhibition
Nanobody 33-A1 (VHH) VHH: EVQLVESGGGLVQAGGSLRLSCAASGDTFSRYSMGWFRQAPGKEREFVVYITRSGRTTYYQDSVKGRFTISRDNAKNTVYLQMNSLKPEDTAVYYCAAMRSGNVRYPERYDYWGQGTQVTVSS | 86.5 | –
